Results reported in patent US20230137139A1, “BIOSYNTHESIS OF CANNABINOIDS AND C[…]” (priority 2020, published 2023).

Experiments:
[1] = system: CBCA, THCA, and CBDA production; assay: In vivo TS activity assay, Example 2 protein engineering of A. niger CBCAS, cultures fed olivetolic acid; type: cell-based, S. cerevisiae; settings: for average CBCA titer compared with the A. niger positive control / Mean CBCA / Mean CBDA / Mean THCA: secondary screen; for Mean CBCA / Mean CBDA / Mean THCA: olivetolic acid (Table 8); for % CBCA / % CBDA / % THCA: share of terminal cannabinoid product profile
Method: (§1) An assay to detect TS activity was conducted as follows: each thawed glycerol stock of candidate CBCAS transformants was stamped into a well of YEP+4% dextrose media. Samples were incubated at 30° C. in a shaking incubator for 2 days. A portion of each of the resulting cultures was stamped into a well of YEP+4% galactose+1 mM olivetolic acid (FIG. 1 Structure 6a). Samples were incubated at 20° C. and shaken in a shaking incubator for 4 days. Every 24 hours during those 4 days, 2% galactose and 1 mM olivetolic acid were spiked into the cultures. Sodium citrate buffer adjusted to pH 5.5 was added to each well at a final concentration of 100 mM. Samples were incubated at 20° C. and shaken in a shaking incubator for 2 days. A portion of each of the resulting production cultures was stamped into a well of phosphate buffered saline (PBS). Optical measurements were taken on a plate reader, with absorbance measured at 600 nm and fluorescence at 528 nm with 485 nm excitation. Samples were incubated at 30° C. in a shaking incubator for 2 days. 100% methanol was stamped into the production cultures in half-height deepwell plates. Plates were heat sealed and frozen. Samples were then thawed for 30 min and spun down at 4° C. A portion of the supernatant was stamped into half-area 96 well plates. CBCA, THCA, and CBDA production in the samples was quantified via liquid chromatography-mass spectrometry (LC-MS).
(§2) To determine whether engineering of the A. niger CBCAS identified in Example 1 (corresponding to SEQ ID NO: 29 (with signal peptides); SEQ ID NO: 27 (without signal peptides and including an N-terminal methionine (UniProt accession No. A0A254UC34)); or SEQ ID NO: 25 (without signal peptides and without the N-terminal methionine)), could alter CBCAS substrate specificity, product specificity and/or amounts of products produced, point mutations were generated in A. niger CBCAS and the mutant versions of the protein were expressed in S. cerevisiae. A library containing 1047 A. niger CBCAS mutants was generated and screened. As in Example 1, each CBCAS mutant in the library, as well as the enzymes expressed by positive control strains, included an N-terminal MFalpha2 signal peptide (SEQ ID NO: 16) (with a methionine residue added at the N-terminus of the MFalpha2 signal peptide) and a C-terminal HDEL signal peptide (SEQ ID NO: 17).
Production of compounds of Formulae (9), (10), and/or (11), including compounds of Formulae (9a), (10a), and/or (11a) by strains expressing the mutated versions of A. niger CBCAS was quantified and compared to the production of the same compounds by a strain expressing wild-type A. niger CBCAS, a strain expressing a C. sativa THCAS, and a strain expressing a C. sativa CBDAS. The strains were screened using the same assay described in Example 1. Production of CBCA, THCA, and/or CBDA in the samples was quantified via LC-MS.
(§3) Of the original 1047 library members, 55 strains were elevated to a secondary screen to verify CBCA production. The experimental protocol for the secondary screen was identical to the primary screen, except that additional biological replicates were included per strain, and replicate production cultures for each strain were separately fed 1 mM boluses of olivetolic acid or 1 mM boluses of divaric acid. All strains were screened in quadruplicate.

[2] = system: CBCVA, THCVA, and CBDVA production; assay: In vivo TS activity assay, Example 2 protein engineering of A. niger CBCAS, cultures fed divaric acid; type: cell-based, S. cerevisiae; settings: for Mean CBCVA / Mean CBDVA / Mean THCVA: S. cerevisiae strains expressing A. niger CBCAS mutants; for Mean CBCVA / Mean CBDVA / Mean THCVA / average CBCVA titer compared with the A. niger positive control: secondary screen; for Mean CBCVA / Mean CBDVA / Mean THCVA / % CBCVA / % CBDVA / % THCVA: fed divaric acid; for % CBCVA / % CBDVA / % THCVA: share of terminal cannabinoid product profile
Method: as §1, §2, §3

Molecule	average CBCA titer compared with the A. niger positive control [1]	Mean CBCA [1]	Mean CBDA [1]	Mean THCA [1]	% CBCA [1]	% CBDA [1]	% THCA [1]	Mean CBCVA [2]	Mean CBDVA [2]	Mean THCVA [2]	% CBCVA [2]	% CBDVA [2]	% THCVA [2]	average CBCVA titer compared with the A. niger positive control [2]
t865714 (protein) MGNTTSIAGRDCLISALGGNSALAVFPNELLWTADVHEYNLNLPVTPAAITYPETAAQIAGVVKCASDYDYKVQARSGGHSFGNYGLGGADGAVVVDMKHFTQFSMDDETYEAVIGPGTTLNDVDIELYNNGKRAMAHGVCPTIKTGGHFTIGGLGPTARQWGLALDHVEEVEVVLANSSIVRASNTQNQDVFFAVKGAAANFGIVTEFKVRTEPAPGLAVQYSYTFNLGSTAEKAQFVKDWQSFISAKNLTRQFYNNMVIFDGDIILEGLFFGSKEQYDALGLEDHFAPKNPGNILVLTDWLGMVGHALEDTILKLVGNTPTWFYAKSLGFRQDTLIPSAGIDEFFEYIANHTAGTPAWFVTLSLEGGAINDVAEDATAYAHRDVLFWVQLFTVNPVGPISDTTYEFTDGLYDVLARAVPESVGHAYLGCPDPRMEDAQQKYWRTNLPRLQELKEELDPKNTFHHPQGVMPA	higher	32311.22 µg/L	6827.61 µg/L	2172.74 µg/L	78.21%	16.53%	5.26%	1775.08 µg/L	0.00 µg/L	1101.76 µg/L	61.70%	0.00%	38.30%	
t865729 (protein) MGNTTSIAGRDCLISALGGNSALAVFPNELLWTADVHEYNLNLPVTPAAITYPETAEQIAGVVKCASDYDYKVQARSGGHSFGNYGLGGADGAVVVDMKHFTQFSMDDETYEAVIGPGTTLNDVDIELYNSGKRAMAHGVCPTIKTGGHFTIGGLGPTARQWGLALDHVEEVEVVLANSSIVRASNTQNQDVFFAVKGAAANFGIVTEFKVRTEPAPGLAVQYSYTFNLGSTAEKAQFVKDWQSFISAKNLTRQFYNNMVIFDGDIILEGLFFGSKEQYDALGLEDHFAPKNPGNILVLTDWLGMVGHALEDTILKLVGNTPTWFYAKSLGFRQDTLIPSAGIDEFFEYIANHTAGTPAWFVTLSLEGGAINDVAEDATAYAHRDVLFWVQLFMVNPVGPISDTTYEFTDGLYDVLARAVPESVGHAYLGCPDPRMEDAQQKYWRTNLPRLQELKEELDPKNTFHHPQGVMPA	higher	32213.25 µg/L	8392.06 µg/L	1856.57 µg/L	75.86%	19.76%	4.37%	3685.70 µg/L	0.00 µg/L	1839.38 µg/L	66.71%	0.00%	33.29%	higher
t865743 (protein) MGNTTSIAGRDCLISALGGNSALAVFPNELLWTADVHEYNLNLPVTPAAITYPETAAQIAGVVKCASDYDYKVQARSGGHSFGNYGLGGADGAVVVDMKHFTQFSMDDETYEAVIGPGTTLNDVDIELYNNGKRAMAHGVCPTIKTGGHFTIGGLGPTARQWGLALDHVEEVEVVLANSSIVRASNTQNQDVFFAVKGAAANFGIVTEFKVRTEPAPGLAVQYSYTFNLGSTAEKAQFVKDWQSFISAKNLTRQFYNNMMIFDGDIILEGLFFGSKEQYDALGLEDHFAPKNPGNILVLTDWLGMVGHALEDTILKLVGNTPTWFYAKSLGFRQDTLIPSAGIDEFFEYIANHTAGTPAWFVTLSLEGGAINDVAEDATAYAHRDVLFWVQLFMVNPVGPISDTTYEFTDGLYDVLARAVPESVGHAYLGCPDPRMEDAQQKYWRTNLPRLQELKEELDPKNTFHHPQGVMPA	higher	58061.40 µg/L	11245.27 µg/L	3389.10 µg/L	79.87%	15.47%	4.66%	4972.60 µg/L	0.00 µg/L	2989.22 µg/L	62.46%	0.00%	37.54%	higher
t865737 (protein) MGNTTSIAGRDCLISALGGNSALAVFPNELLWTADVHEYNLNLPVTPAAITYPETAAQIAGIVKCASDYDYKVQARSGGHSFGNYGLGGADGAVVVDMKHFTQFSMDDETYEAVIGPGTTLNDVDIELYNNGKRAMAHGVCPTIKTGGHFTIGGLGPTARQWGLALDHVEEVEVVLANSSIVRASNTQNQDVFFAVKGAAANFGIVTEFKVRTEPAPGLAVQYSYTFNLGSTAEKAQFVKDWQSFISAKNLTRQFYNNMVIFDGDIILEGLFFGSKEQYDALGLEDHFAPKNPGNILVLTDWLGMVGHALEDTILKLVGNTPTWFYAKSLGFRQDTLIPSAGIDEFFEYIANHTAGTPAWFVTLSLEGGAINDVAEDATAYAHRDVLFWVQLFMVNPVGPISDTTYEFTDGLYDVLARAVPESVGHAYLGCPDPRMEDAQQKYWRTNLPRLQELKEELDPKNTFHHPQGVMPA	higher	53771.53 µg/L	10699.35 µg/L	2873.74 µg/L	79.85%	15.89%	4.27%	4271.01 µg/L	0.00 µg/L	2136.23 µg/L	66.66%	0.00%	33.34%	higher
t865746 (protein, expressed in S. cerevisiae strain) MGNTTSIAGRDCLISALGGNSALAVFPNELLWTADVHEYNLNLPVTPAAITYPETAAQIAGVVKCASDYDYKVQARSGGHSFGNYGLGGADGAVVVDMKHFTQFSMDDETYEAVIGPGTTLNDVDIELYNNGKRAMAHGVCPTIKTGGHFTIGGLGPTARQWGLALDHVEEVEVVLANSSIVRASNTQNQDVFFAVKGAAANFGIVTEFKVRTEPAPGLAVQYSYTFNLGSTAEKAQFVKDWQSFISAKNLTRQFYNNMVIFDGDIILEGLFFGSKEQYDALGLEDHFAPKNPGNILVLTDWLGMVGHALEDTILKLVGNTPTWFYAKSLGFRQDTLIPSAGIDEFFEYIANHTAGTPAWFVTLSLEGGAINDVAEDATAYAHRDALFWVQLFMVNPVGPISDTTYEFTDGLYDVLARAVPESVGHAYLGCPDPRMEDAQQKYWRTNLPRLQELKEELDPKNTFHHPQGVMPA	higher	49195.03 µg/L	9456.09 µg/L	2882.16 µg/L	79.95%	15.37%	4.68%	4751.98 µg/L	0.00 µg/L	2061.14 µg/L	69.75%	0.00%	30.25%	higher
t865744 (protein) MGNTTSIAGRDCLISALGGNSALAVFPNELLWTADVHEYNLNLPVTPAAITYPETAAQIAGVVKCASDYDYKVQARSGGHSFGNYGLGGADGAVVVDMKHFTQFSMDDETYEAVIGPGTTLNDVDIELYNNGKRAMAHGVCPTIKTGGHFTIGGLGPTARQWGLALDHVEEVEVVLANSSIVRASNTQNQDVFFAVKGAAANFGIVTEFKVRTEPAPGLAVQYSYTFNLGSTAEKAQFVKDWQSFISAKNLTRQFYNNMFIFDGDIILEGLFFGSKEQYDALGLEDHFAPKNPGNILVLTDWLGMVGHALEDTILKLVGNTPTWFYAKSLGFRQDTLIPSAGIDEFFEYIANHTAGTPAWFVTLSLEGGAINDVAEDATAYAHRDVLFWVQLFMVNPVGPISDTTYEFTDGLYDVLARAVPESVGHAYLGCPDPRMEDAQQKYWRTNLPRLQELKEELDPKNTFHHPQGVMPA	higher	44305.26 µg/L	7187.94 µg/L	2369.76 µg/L	82.26%	13.34%	4.40%	3752.20 µg/L	0.00 µg/L	2162.61 µg/L	63.44%	0.00%	36.56%	higher
